Reference: article doi:10.1101/2021.11.05.467329
Values joined by “and” are separate entries in the source; they are usually repeats but may differ in a detail not shown here. Equal values may be shown once.

Columns and labels:
Assay in all cases: SEC
[1] = molecular target: Plasmodium falciparum glyceraldehyde 3-phosphate dehydrogenase I209T variant (recombinant) (Plasmodium falciparum) (UniProt Q8IKK7)
[2] = molecular target: Plasmodium falciparum glyceraldehyde 3-phosphate dehydrogenase V238A variant (recombinant) (Plasmodium falciparum) (UniProt Q8IKK7)
[3] = molecular target: Plasmodium falciparum glyceraldehyde 3-phosphate dehydrogenase, wild type (recombinant) (Plasmodium falciparum) (UniProt Q8IKK7)

## Plasmodium falciparum glyceraldehyde 3-phosphate dehydrogenase I209T variant (recombinant) (from UniProt Q8IKK7 4-335) (enzyme)
[1]
  stoichiometry N: 4 and 2

## Plasmodium falciparum glyceraldehyde 3-phosphate dehydrogenase V238A variant (recombinant) (from UniProt Q8IKK7 4-335) (enzyme)
[2]
  stoichiometry N: 4 and 2

## Plasmodium falciparum glyceraldehyde 3-phosphate dehydrogenase, wild type (recombinant) (from UniProt Q8IKK7 4-335) (enzyme)
[3]
  stoichiometry N: 4
